# In publication PMC2754075 (Nature cell biology, 2009):
# Target: MBP-VPRBP (UniProt Q9Y4B6 1-1507)
# Assay: pull-down
# Sequence of MBP-VPRBP (Q9Y4B6 whole entry): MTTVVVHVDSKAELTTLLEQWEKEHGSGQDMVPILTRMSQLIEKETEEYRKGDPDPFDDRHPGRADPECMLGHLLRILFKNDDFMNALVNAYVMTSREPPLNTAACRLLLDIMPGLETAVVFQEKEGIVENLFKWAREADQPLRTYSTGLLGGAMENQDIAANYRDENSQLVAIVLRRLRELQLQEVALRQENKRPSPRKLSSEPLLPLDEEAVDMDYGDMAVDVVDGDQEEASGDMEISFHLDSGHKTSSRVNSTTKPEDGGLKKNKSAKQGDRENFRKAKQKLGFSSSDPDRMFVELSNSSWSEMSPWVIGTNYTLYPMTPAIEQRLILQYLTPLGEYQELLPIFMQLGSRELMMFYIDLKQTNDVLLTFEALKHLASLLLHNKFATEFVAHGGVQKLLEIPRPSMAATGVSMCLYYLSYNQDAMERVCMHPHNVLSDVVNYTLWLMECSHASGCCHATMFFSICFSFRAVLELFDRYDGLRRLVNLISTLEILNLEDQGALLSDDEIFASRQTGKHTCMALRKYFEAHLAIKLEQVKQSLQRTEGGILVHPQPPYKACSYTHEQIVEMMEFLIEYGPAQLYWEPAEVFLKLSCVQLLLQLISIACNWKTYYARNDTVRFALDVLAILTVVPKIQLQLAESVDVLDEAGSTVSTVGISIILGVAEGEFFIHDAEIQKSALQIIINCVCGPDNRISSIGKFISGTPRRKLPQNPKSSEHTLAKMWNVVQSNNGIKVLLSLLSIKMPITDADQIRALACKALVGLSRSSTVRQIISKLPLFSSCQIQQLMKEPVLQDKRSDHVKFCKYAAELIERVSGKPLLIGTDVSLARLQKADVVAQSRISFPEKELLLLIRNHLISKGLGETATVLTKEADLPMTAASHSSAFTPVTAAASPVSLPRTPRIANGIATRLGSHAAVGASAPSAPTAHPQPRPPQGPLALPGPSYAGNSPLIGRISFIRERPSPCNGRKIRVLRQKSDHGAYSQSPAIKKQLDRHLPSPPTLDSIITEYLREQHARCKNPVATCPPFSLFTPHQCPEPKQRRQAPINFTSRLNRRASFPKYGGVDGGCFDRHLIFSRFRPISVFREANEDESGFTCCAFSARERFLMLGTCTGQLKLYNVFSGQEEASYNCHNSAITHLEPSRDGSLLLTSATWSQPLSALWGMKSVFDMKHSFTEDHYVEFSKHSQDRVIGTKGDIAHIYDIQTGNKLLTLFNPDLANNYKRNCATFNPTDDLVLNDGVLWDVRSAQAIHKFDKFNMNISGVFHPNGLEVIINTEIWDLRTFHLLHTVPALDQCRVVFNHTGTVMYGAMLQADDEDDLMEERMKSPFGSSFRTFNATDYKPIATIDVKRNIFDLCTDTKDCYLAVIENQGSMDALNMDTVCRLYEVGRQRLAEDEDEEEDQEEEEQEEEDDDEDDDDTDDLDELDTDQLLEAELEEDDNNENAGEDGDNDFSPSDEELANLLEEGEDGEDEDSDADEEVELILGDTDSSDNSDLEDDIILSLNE
binder,measurement,value
GST-Katanin (natural protein) MSLLMISENVKLAREYALLGNYDSAMVYYQGVLDQMNKYLYSVKDTYLQQKWQQVWQEINVEAKHVKDIMKTLESFKLDSTPLKAAQHDLPASEGEVWSMPVPVERRPSPGPRKRQSSQYSDPKSHGNRPSTTVRVHRSSAQNVHNDRGKAVRCREKKEQNKGREEKNKSPAAVTEPETNKFDSTGYDKDLVEALERDIISQNPNVRWDDIADLVEAKKLLKEAVVLPMWMPEFFKGIRRPWKGVLMVGPPGTGKTLLAKAVATECKTTFFNVSSSTLTSKYRGESEKLVRLLFEMARFYSPATIFIDEIDSICSRRGTSEEHEASRRVKAELLVQMDGVGGTSENDDPSKMVMVLAATNFPWDIDEALRRRLEKRIYIPLPSAKGREELLRISLRELELADDVDLASIAENMEGYSGADITNVCRDASLMAMRRRIEGLTPEEIRNLSKEEMHMPTTMEDFEMALKKVSKSVSAADIERYEKWIFEFGSC,binding result,binds
